The values that follow come from patent US20220080036A1 (VANDERBILT UNIVERSITY, published 2022).

Substitutions are numbered along the chain they refer to.

To fix the notation:
T1: IsdA (iron-regulated surface determinant protein A), recombinant (Staphylococcus aureus, UniProt P0C1S5 58-316)
T1 construct: also called recombinant IsdA; Isd antigen
T1 chain: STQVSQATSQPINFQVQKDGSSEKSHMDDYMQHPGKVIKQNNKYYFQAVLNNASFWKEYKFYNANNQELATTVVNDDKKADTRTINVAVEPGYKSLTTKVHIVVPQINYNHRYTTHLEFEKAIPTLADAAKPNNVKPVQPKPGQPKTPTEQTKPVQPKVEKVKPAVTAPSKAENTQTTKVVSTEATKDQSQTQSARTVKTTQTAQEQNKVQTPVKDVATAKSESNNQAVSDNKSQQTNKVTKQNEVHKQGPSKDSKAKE

B1: STAU-402 (antibody, V domains shown)
VH: QLQLQESGPGLVKPSETLSLTCTVSGGSISSSSYYWGWIRQPPGKGLEWIGSIYYSGSTYYNPSLKSRVTISVDTSKNQFSLKLSSVTAADTAVYYCARPNSSGWSYYFDYWGQGTLVTVSS
VL: QSVLTQPPSVSGAPGQRVTISCTGTSSNIGADYDVHWYQQLPGTAPKLLIYGNINRPSGVPDRFSGSRSGTSASLAITGLQADDEADYYCQSYDSSLSGSVVFGGGTKLTVL
B2: STAU-401 (antibody, V domains shown)
VH: QVQLVQSGPEARKPGTSVKVSCKTSGYTFSSYGIAWVRQAPGQGLEWMGWISGYSDYTIYAQRLQGRVSMTTDPYTSTAYMELRSLRPDDTAVYYCATLSFGELVENKLDFWGQGTLVTVSS
VL: B1 VL with D34A, N53T
B3: STAU-229 (antibody, V domains shown)
VH: EVQLVQSGAEVKKPGATMKISCKVSGYPFTDYYMHWVQQAPGKGLEWMGLIDPEDGETNYAEKFQGRVTITADTSTDTVYMELSSLRSEDTAVYFCAKPHCSSRTCQRVSGYYFGMDVWGQGTLVTVSS
VL: QSALTQPPSASGSPGQSVTISCTGSSNDVGDYNFVSWYQQHPGKPPKLMIYEVTKRPSGVPDRFFGSKSGNTASLTVSGLQADDEADYYCSSYAGGNSVVFGGGTKLTVL
B4: STAU-399 (antibody, V domains shown)
VH: QVQLVQSGAEVKKPGSSLKVSCKVSGGNLRSYGISWVRQAPGQGLEWMGVIIPIFGTPTYAQKFQGRVTLAADDSNNIVFMELSSLRSEDTAVYYCARDWPSITVAVDATNYGMDVWGQGTLVTVSS
VL: QSALTQPRSVSGSPGQSVTISCTGTSNDVGYYDHVSWYQQHPGKAPKFIIYDVSKRPSGVPDRFSGSKSDNTASLTISGLQAEDEADYYCCSFAGSYTYVFGTGTKVTVL
B5: STAU-307 (antibody, V domains shown)
VH: QVQLVQSGAEVKKTGSSVKVSCTASGATFNTNDLMWVRQAPGQGLEWMGGIVPVFGRPKYAKKFHGRLIISADEFTTTFYMELTSLTFDDTAIYYCARSGSTESPIQHIDFWGQGTLVTVSS
VL: SYVLTQPPSVSVAPGQTATITCGGDNIATFSVHWYRQKPGQAPVLVVYDDLDRASGIPARFSGSNSGNTATLTISRVEPGDEADYFCQVWEISSDEYVFGPGTSVTVL
B6: STAU-407 (antibody, V domains shown)
VH: QLQLQESGPGLVKPSETLSLTCSVSGGSISRTYYYWDWIRQPPGKGLEWIGSVYYSGSTYYNPSLKSRVTMSVDTSKNLFSLKLSSVTAADTAVYYCASHESWQQLISWGQGTLVTVSS
VL: QAVLTQPSSLSASPGASASLTCTLRSGINVGIYRIYWYQQKPGSPPQYLLRYKSDSDKHQGSGVPSRFSGSKDASANAGILLISGLQSEDEADYYCMIWHSSAVAFGGGTKLTVL
B7: STAU-239 (antibody, V domains shown)
VH: QVQLVQSGAEVKKPGSSVKVSCRASGGPFNTYVITWVRQAPGQGLEWMGGIVPVFNTSHSAQKFQGRVKISADTSTNTVYMELTSLTFEDTAVYFCARDGAAAPLNWYDPWGQGTLVTVSS
VL: SYVLTQPPSVSLAPGQTATLTCGGNNIGSKSVHWYQKKPGQAPVLVVYDVRDRPSGIPERFSGSSSENTATLTLSRVEAEDEADYYCQVWESTTSHVIFGGGTKLTVL
B8: STAU-299 (antibody, V domains shown)
VH: QVTLRESGPALVKPTETVTLTCTFSGFSLSTSGMCVTWLRQPPGKALEWLALIDWEDDKYYSTSLKTRFTISKDTSKNQVVLTMTNMDPVDTATYYCARTPTYRGAFDMWGQGTLVTVSS
VL: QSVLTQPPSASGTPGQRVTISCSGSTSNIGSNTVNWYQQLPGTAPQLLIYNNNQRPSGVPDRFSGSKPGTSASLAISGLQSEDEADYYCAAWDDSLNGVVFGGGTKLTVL
B9: STAU-221 (antibody, V domains shown)
VH: QVTLRESGPALVKPTQTLTLTCTFSGFSLTSSGMCVSWIRQPPGKALEWLALIDWDDDKYYITSLKTRLIISKDTSKNQVVLTMTNMDPVDTATYYCARTQSGYSGYYVDYWGQGTLVTVSS
VL: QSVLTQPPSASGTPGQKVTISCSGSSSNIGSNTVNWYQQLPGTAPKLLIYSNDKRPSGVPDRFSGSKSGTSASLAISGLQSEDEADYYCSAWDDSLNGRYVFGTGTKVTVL
B10: STAU-218 (antibody, V domains shown)
VH: QVTLKESGPVVVKPTETLTLTCTVSDVSLRNVQMGVSWIRQPPGKALEWLAHIFSHDEKAYVTSLENRLTISRDTSNSQVVLTMTNMDPVDTGTYYCARIRSTSGEEEDPFAFWGQGTLVTVSS
VL: DIQMTQSPSSLSASVGDRVTITCRASQSVTTWLAWYQQKPGKAPKLLIYSASSLESGVPSRFSGSGSGTDFTLTISNLQPDDFATYYCQQYRFYWTFGQGTKVESK
B11: STAU-280 (antibody, V domains shown)
VH: EVQLVESGGGLVQTGGSLRLSCAASGFTFSRYNMNWVRQAPGKGLEWVSFISATSSSIYYADSVKGRFTISRDNAKNSLDLQMNSLRDEDTAVYFCVREDAAIFGVGSWFDPWGQGTLVTVSS
VL: EIVMTQSPATLSVSPGERATLSCRASQSVSSNLAWYQQKPGQAPRLLIYGASTRATGIPARFSGSGSGTEFTLTISSLQSEDFAVYFCQEYNDWPLYTFGQGTKLEIK
B12: STAU-201 (antibody, V domains shown)
VH: QVQLVQSGPEVKKPGASVKVSCKASGYTFTNYGLTWVRQAPGKGLEWIGWISPYTGRAKFALKFQGRFTLTTDTSTTTAYMEVRSLKSDDSAVYYCAREGIKDASAFDFWGQGTLVTVSS
VL: QSALTQPASVSGSPGQSITISCTGTGSDIGGYNHVSWYHHYPGKAPKLLIFGVTHRPSGVSDRFSGSKSGVTAFLTISGLQAEDEADYYCSSYTDNTSWVFGGGTKVTVL
B13: STAU-64 (antibody, V domains shown)
VH: EVQLVESGGGLVKPGGSLRLSCAASGFSFSYYSMNWVRQAPGKGLEWISSISSSGEYIYYADSVKGRFTISRDNAENSLYLQMNSLRAEDTAVYYCAKVVSQQSLDYWGQGTLVTVSS
VL: DIVMTQSPSSLSVSVGDRVTITCRASQSISTYLNWYQQKPGKAPKLLISGGSNLQSGVPSRFSGSGSGTDFTLTIISLQPEDFATYYCQQSYSTRYSFGQGTKLEIK
B14: STAU-389 (antibody, V domains shown)
VH: B4 VH with K13Q, P14S, T57A, L70F, A71V, S75G, I78V, T110I, Y112F, G113A
VL: B4 VL with S26N, Y31S, K55T, K106T
B15: STAU-281 (antibody, V domains shown)
VH: QVQLVQSGAEVKRPGSSVRVSCKDSGDSFRRYVINWVRQAPGQGLEWMGGIIPIFDKAKSVQKFQDRLTITADESTSTSYMELSSLTSEDTAVYYCARKEDGRRDDVFDIWGQGTLVTVSS
VL: EIVMTQSPATLSVSLGERATLSCRASHSVGSSLAWYQQKPGLAPRLLIYGVSTRATGIPARFSGSGSATEFTLTISSLQSEDLAAYHCQQYDNWPFTFGQGTKLEIK
B16: STAU-328 (antibody, V domains shown)
VH: QVQLQQWGAGLLKPSETLSLTCAVYGGSFSGYYWSWIRQPPGKGLEWIGEINHSGSTNYNPSLKSRVTISVDTSKNQFSLKLSSVTAADTAVYYCARDVGDRYYFDYWGQGTLVTVSS
VL: QSALTQPASVSGSPGQSITISCTGTSSDVGSYNLVSWYQQHPGKAPKLMIYEGSKRPSGVSNRFSGSKSGNTASLTISGLQAEDEADYYCCSYAGSSTFVVFGGGTKLTVL
B17: STAU-139 (antibody, V domains shown)
VH: EVQLVQSGAEVKKPGESLKISCKGSGYSFTSYWIGWVRQMPGKGLEWMGIIYPGDSDTRYSPSFQGQVTISADKSISTAYLQWSSLKASDTAMYYCARPPGLRGDAFDIWGQGTLVTVSS
VL: QSALTQPPSASGSPGQSVTISCTGTSSDVGGYNYVSWYQQHPGKAPKLMIYEVSKRPSGVPDRFSGSKSGNTASLTVSGLQAEDEADYYCSSYAGSNNLVFGGGTKLTVL

T3 sequence (Q2FG07 41-864): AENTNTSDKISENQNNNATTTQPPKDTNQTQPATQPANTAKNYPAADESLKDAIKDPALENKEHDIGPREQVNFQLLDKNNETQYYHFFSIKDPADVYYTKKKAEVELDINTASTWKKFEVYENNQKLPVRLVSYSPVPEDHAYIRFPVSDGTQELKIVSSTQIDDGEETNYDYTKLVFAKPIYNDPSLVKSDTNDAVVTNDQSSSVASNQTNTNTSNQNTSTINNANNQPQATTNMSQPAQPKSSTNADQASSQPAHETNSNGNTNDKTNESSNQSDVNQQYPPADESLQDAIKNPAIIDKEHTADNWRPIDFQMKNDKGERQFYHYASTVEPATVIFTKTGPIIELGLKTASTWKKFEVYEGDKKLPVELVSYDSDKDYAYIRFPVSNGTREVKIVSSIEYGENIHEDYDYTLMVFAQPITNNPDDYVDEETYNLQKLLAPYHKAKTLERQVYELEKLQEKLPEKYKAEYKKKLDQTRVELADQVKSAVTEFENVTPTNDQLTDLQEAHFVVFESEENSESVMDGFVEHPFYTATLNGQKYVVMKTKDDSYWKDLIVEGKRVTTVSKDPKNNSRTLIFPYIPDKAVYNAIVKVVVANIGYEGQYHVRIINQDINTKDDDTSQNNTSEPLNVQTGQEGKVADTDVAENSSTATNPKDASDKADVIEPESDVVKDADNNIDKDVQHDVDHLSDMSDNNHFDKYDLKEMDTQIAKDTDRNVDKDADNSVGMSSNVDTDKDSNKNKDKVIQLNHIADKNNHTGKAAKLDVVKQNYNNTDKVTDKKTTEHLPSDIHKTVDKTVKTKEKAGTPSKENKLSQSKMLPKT

The target in one test is T1, IsdA (iron-regulated surface …). Put plainly: ELISA on coated recombinant antigen, half-maximal binding. In general terms: In an ELISA, binding on a coated surface is turned into a signal by an enzyme label.
In the case of B1, the concentration giving a half-maximal response (EC50) turned out to be 8200 ng/mL.

For B2, the EC50 came to 25100 ng/mL.

Consider B3, for which the EC50 was determined as 700 ng/mL.

In the case of B4, the EC50 turned out to be 8700 ng/mL.

With B5, the EC50 turned out to be 10 ng/mL.

On to B6, for which the 50% effective concentration (EC50) was found to be 1600 ng/mL.

Regarding B7, the EC50 came to 70 ng/mL.

B8: the EC50 came out at 220 ng/mL.

For B9, the concentration giving a half-maximal response (EC50) was determined as 30 ng/mL.

B10: the EC50 came to 80 ng/mL.

Regarding B11, the EC50 turned out to be 52100 ng/mL.

For the molecule B12, the EC50 was 260 ng/mL.

The target in another test is T2, IsdB (iron-regulated surface determinant protein B), recombinant (Staphylococcus aureus, UniProt A6QG30 41-609).
T2 construct: also called recombinant IsdB
T2 sequence (A6QG30 41-609 limits assumed): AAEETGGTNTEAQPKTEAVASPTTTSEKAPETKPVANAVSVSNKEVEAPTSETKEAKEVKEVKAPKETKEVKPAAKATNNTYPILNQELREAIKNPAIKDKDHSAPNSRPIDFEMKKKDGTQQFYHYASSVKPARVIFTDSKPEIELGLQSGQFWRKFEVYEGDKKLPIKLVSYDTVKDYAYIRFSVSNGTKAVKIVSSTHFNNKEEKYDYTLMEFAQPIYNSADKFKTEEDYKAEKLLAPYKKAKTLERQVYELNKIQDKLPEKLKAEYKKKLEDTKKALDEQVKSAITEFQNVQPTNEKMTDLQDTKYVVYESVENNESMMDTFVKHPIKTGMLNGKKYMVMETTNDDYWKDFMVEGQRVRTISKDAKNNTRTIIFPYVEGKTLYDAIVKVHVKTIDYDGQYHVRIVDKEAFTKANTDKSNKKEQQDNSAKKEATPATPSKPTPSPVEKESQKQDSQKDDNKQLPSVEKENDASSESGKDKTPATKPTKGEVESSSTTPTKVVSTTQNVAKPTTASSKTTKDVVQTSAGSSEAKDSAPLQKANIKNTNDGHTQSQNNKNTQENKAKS
The test is described as above.
Take B1: the EC50 stood at 3400 ng/mL.

With B2, the EC50 came out at 3700 ng/mL.

Take B13: the EC50 was 140 ng/mL.

On to B3, for which the EC50 is 10 ng/mL.

As for B14, the EC50 amounted to 130 ng/mL.

For the molecule B4, the EC50 was 530 ng/mL.

B5: the 50% effective concentration (EC50) turned out to be 0.28 ng/mL.

Turning to B7, the 50% effective concentration (EC50) stood at 1 ng/mL.

As for B8, the concentration for a half-maximal effect (EC50) turned out to be 12700 ng/mL.

In the case of B9, the half-maximal effective concentration (EC50) came to 1900 ng/mL.

Turning to B10, the concentration giving a half-maximal response (EC50) was determined as 4100 ng/mL.

B11: the EC50 was determined as 7600 ng/mL.

In the case of B12, the EC50 was 9500 ng/mL.

For the molecule B15, the 50% effective concentration (EC50) came out at 2 ng/mL.

Take B16: the EC50 is 80 ng/mL.

A further test concerns the target T3, IsdH (iron-regulated surface determinant protein H), recombinant (Staphylococcus aureus).
T3 construct: also called recombinant IsdH
The test is described as above.
With B14, the EC50 came to 340 ng/mL.

B4: the EC50 is 950 ng/mL.

For the molecule B5, the EC50 came out at 0.01 ng/mL.

For B6, the EC50 came to 3100 ng/mL.

Take B15: the EC50 is 2.7 ng/mL.

Take B16: the EC50 is 60 ng/mL.

Turning to B17, the EC50 is 2700 ng/mL.

For orientation: EC50 means the concentration at which the effect is half-maximal.
